# Measured values reported in the nanobody polyreactivity screen of Harvey et al. (2022).
# Experiment: yeast display, Sf9 membrane polyspecificity reagent, FACS + sequencing; frameworks hold sequencing errors
# How it was run: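 Genes from sorted yeast were amplified by colony PCR, read by MiSeq 2 × 250 sequencing and filtered on CDR length. These cells carried a synthetic nanobody library in Saccharomyces cerevisiae BJ5465 and were sorted by FACS into low and high (top ~1%) gates on anti-HA and streptavidin fluorescence. Polyreactivity is labelled according to the gate of origin.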
row,Sequence,polyreactivity (PSR sort gate)
1,QVQLVESGGGLVQAGGSLRLSCAASGLIFGWYAMGWYRQAPGKERELVASISRSGGSTYYADSVKGRFTISRDNAKNTVYLQMNSLKPEDTAVYYCAALYYGFRLTYGYDYWGQGTQVTVSS,high polyreactivity
2,QVQLVESGGGLVQAGGSLRLSCAASGLIFGYYAKGWNTQAPGKERELVADISSGGSSNYADSVKGRFTISRDNAKNTVYLQMMSLKPEVTAVYYCAARYSRWFGFWGQGTQVTVSS,high polyreactivity
3,QVQLVESGGGLVQAGGSLRLSCAASGLIFGYYAMGWYRQAPGKERELVAAISWSGGRTYYADSVKGRFTISRDNAKNTVYLQMNSLKPEDTAVYYCAADTYPYIGGYYWGQVTQVTVSS,high polyreactivity
4,QVQLVESGGGLVQAGGSLRLSCAASGLIFHFNAMGWYRQAPGKERELVAAITSIGGSTFYADSVKGRFTISRDNAKNTVYLQMNSLKPEDTAVYYCAAAISYFFPDYDYWGQGTQVTVSS,low polyreactivity
5,QVQLVESGGGLVQAGGSLRLSCAASGLIFKDYAMGWYRQAPGKERELVAAISSSGGSTYYADSVKGRFTISRDNAKNTVYLQMNSLKPEDTAVYYCAARSFRYYSDYGYWGQGTQVTVSS,high polyreactivity
6,QVQLVESGGGLVQAGGSLRLSCAASGLIFKIYAMGWYRQAPGKERELVASISSNGGTYYADSVKGRFTISRDNAKKTVYLQMNSLKPEDTAVYYCNAKRVARYQYGASYNYWGQGTQVTVSS,high polyreactivity
7,QVQLVESGGGLVQAGGSLRLSCAASGLIFKSYLMGSYRQAPGKERELVAGITGSGGTTYYADSVKGRFTISRDNAKNTVYLQMNSLKPEDTAVYYCAARSRSRPKYDYWGQGTQVTVSS,high polyreactivity
8,QVQLVESGGGLVQAGGSLRLSCAASGLIFKVYAMGWYRQAPGKEWELVAAITYSGGSTDYADSVKGRFTISRDNAKNTVNLQMNSLKPEDTAVYYCNVEKVGHVNSYGYDYWGQGTQVTVSS,low polyreactivity
9,QVQLVESGGGLVQAGGSLRLSCAASGLIFLTYAMGWYRQAPGKERELLATISGSTGGTYYADSVKGRFTISRDNAKNSVYLKMNSLKPEDTAVYYCNRRYGRSFRWGYCYWGEGTQVTVSS,low polyreactivity
10,QVQLVESGGGLVQAGGSLRLSCAASGLIFLYYAMGWYRQAPGKERELVAAISSSGSTYYADSGKGRFTISRDNAKNTVYLQMNSLKPEDTAVYYCAAAGYLYPYRYYYWGQGTQVTVSS,high polyreactivity
11,QVQLVESGGGLVQAGGSLRLSCAASGLIFLYYAMGWYRQAPGKERELVAAISSSGSTYYADSVKGRFTISRDNAKNTVYLQMNSLKPEDTAVYYCAAAGYLYPYRYYYWGQGTQVTVSS,high polyreactivity
12,QVQLVESGGGLVQAGGSLRLSCAASGLIFNFYAMGWYRPAPGKEREFVAAISWNAGSTYYADSVKGRFTISRDNAKNTVYLQMNSLKPEDTAVYYCNADQDYQGARPSGMDYWGQGTQVTVSS,low polyreactivity
13,QVQLVESGGGLVQAGGSLRLSCAASGLIFNTYAMGWYRQAPGKERELVAAITDGGGTNYADSVKGRFTISRDNAKNTVYLQMNSLKPEDTAVYYCAARLASWPLTYDFQWYEYWVQGTQVTVSS,low polyreactivity
14,QVQLVESGGGLVQAGGSLRLSCAASGLIFNVNAMGWYRQAPRKERELVAAITGGGGSTYYADSVKGRFTISRDNAKNTVYLQMNSLKPEDTAVYYCAATTGLYTRYGDWGQVTQVTVSS,high polyreactivity
15,QVQLVESGGGLVQAGGSLRLSCAASGLIFPGYDMGWYRAAPGKVRELVAAISDSGANTYYADSVKVRFTISRDNAKNTVYLQMNSLKPEDTAVYYCAADSSWGYGTYFGRFDYWGQGTQVTVSS,low polyreactivity
16,QVQLVESGGGLVQAGGSLRLSCAASGLIFPLYAMGWYRQAPGKERELVAAISRTGVSTDYADSVKGRFTISRDNAKNTVYLQMNSLKPEDTAVYYCNKVRTPRRRYDYWGQGTQVTVSS,low polyreactivity
17,QVQLVESGGGLVQAGGSLRLSCAASGLIFPRYDIGWYRQAPGKESEFVAAITSGGGTYYADSVKGRFTLSRDNAKNTVYLQMNSVKPEDTAVYYCARDHYRHSRYFYRYDYWGQGTQVTVSS,low polyreactivity
